Reference: article PMC6761149

Target: Q8DLC1
Assay: SAXS; ESRF BM29, 10 °C, 20 mM Tris/HCl pH 7.5, 500 mM NaCl, 20% (v/v) glycerol; dark holoprotein (NADPH, Pchlide) at 0.65 mg ml^-1; monomer content from I(0)
Settings: other: SAXS

B1: light-dependent protochlorophyllide oxidoreductase of Thermosynechococcus elongatus BP-1 (TeLPOR) (protein)
chain: MSDQPRPTVIITGASSGVGLYATKALANRGWHVIMACRNLEKAEQAAKNLQIPPEAYTILHLDLSSLASVRGFVESFRALNRPLRALVCNAAVYYPLLKEPIYSVDGYEITVATNHLGHFLLINLLLEDLKNSPESDKRLVILGTVTANRKELGGKIPIPAPPDLGNLEGFEKGFKKPIAMINGKPFKSGKAYKDSKLCNMLTARELHRRFHESTGIVFNSLYPGCVADTPLFRHHFPLFQKLFPLFQKKITGGYVSQELAGERVAMVVADPEFRQSGVHWSWGNRQKEGRKAFVQELSAEASDEQKARRLWELSEKLVGLA
  monomer content from I(0), with NADPH and Pchlide: monomer content from I(0): 85.9%
